# Measured values taken from the nanobody polyreactivity screen of Harvey et al. (2022).
# Test: yeast display, Sf9 membrane polyspecificity reagent, FACS + sequencing; frameworks hold sequencing errors
# Summary of the method: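 Synthetic nanobody libraries on Saccharomyces cerevisiae BJ5465 were galactose-induced for 36–48 hours, stained 1 hour at 4 °C with 10% biotinylated, detergent-solubilized Sf9 membrane reagent and enriched on streptavidin microbeads. FACS then separated cells into low and high (top ~1%) gates by anti-HA (expression) and streptavidin (reagent binding) fluorescence. Genes were colony-PCR amplified, MiSeq 2 × 250 sequenced and CDR-length filtered. A clone's polyreactivity label is that of its gate of origin.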
row,Sequence,polyreactivity (PSR sort gate)
1,QVQLVESGGGLVQAGGSLRLSCAASGRTIPFYAMGWYRQAHGKERELVDAIDSGGNTYADSVKGRFTISRDNAKNTVYLQMISLKPEDTAVYYCAVDGGEFSSYGYWGQGTQVTVSS,low polyreactivity
2,QVQLVESGGGLVQAGGSLRLICAASGYIFAYNTMGWYRQAPGKERELVAAISRSGGSTYYADSVKGRFTISRDNAKNTVYLQMNSLKPEDTAVYSCAARYAPLDFRFDYWGQGTQVTVSS,high polyreactivity
3,QVQLVESGGGLVQAGGSLRLSCAASGRIFFRYAMGWYRPAPGKEREFVAAISGSAGSTYYADSVKGRFKISRDNAKNTVYLQMNSLKPEDTAVYYCAARKAKVSNGLKYDYWGQGTQVTVSS,high polyreactivity
4,QVQLVESGGGLVQAGGSLRLSCAASGRIFVYYAMGWYRQAPGNERELVAAITSGGTTYYADSVKGRFTISRDNAKNTVYLQMNSLKPEDTAVYYCAKVGRSDLGYDYWGQGTQVTVSS,low polyreactivity
5,QVQLVESGGGLVQAGGSLRLSCTASGFTSRIYAMGWYRQAPVKERELVAAITRGVSTNYSDSVKGRFTISRDNAKNTVYLQMNSLKPEDTAVYYCAARTSGSYPYRTINEYWGQGTQVTVSS,high polyreactivity
6,QVQLVESGGGLVQAGGSLRLSCAASGIIFYLYAMGWYRQAPGKERELVAAISWRGGSTYYADSVKGRFTISRDNAKNTVYLQMNSLKPEDTAVYYCNKTQPIDLYGYWGQGTQVTVSS,high polyreactivity
7,QVQLVESGGGLVQAGGSLRLSCAASGRIFLRYAMGWYRQAPGKERELVAVISSGGSTYYADSVKGRFTISSDNAKNTVYLQMNSLKPEDSAVYYCAASRHDSRYQYDYWGQGTQVTVSS,high polyreactivity
8,QVQLVESGGGLVQAGGSLRLICAASGITFSLYVKGRYSQAPGNERELVAAISTSGGSTYYADSVKGRFSLSRDNPKKSVYFQMNSLKPEDTSVYYCAAVYVLSWYVQTYDYWGQGTQVTVSS,low polyreactivity
9,QVQVVESGGGLFQAGGSLRLSSAASGSIFARNALGWYRQAPGKERDLVAGITRSTGDTYYADSVKGRFTISRDNAKYTVSFQMNSLKQEDTAVYYCARDGRRTPYKYEYWGQGTQVTVSS,low polyreactivity
10,QVQLVESGRGLVQAGGSLRLSCAPSGSTIQDYAMGWYRQAPGKERELVAAISWRSDITYYAESVKGRFTISRDNAKNTVYLQMNSLKPEDTAVYYCAADNSYHWLDREFDYEFDYWGQGTQVTVSS,high polyreactivity
11,QVQLVESGGGLVQAGGSLRLSCAASGSIFYRNAMGWSRQPPGKERELVAGITTRGGSTYYADSVKGRFTISRDNAKNTVYLQMNSLKPEDTAVYYCAAVPYSRYSSSRGYWGQGTQVTVSS,high polyreactivity
12,QGQLVESGAGLVKAGGSLRISCAASGYTFPSNARAWYRHAPGTPRQLVAAISSGGRTNYADSLKGRFTISRDNAKNTVYLQMNRLKPEDTAVYNCNADGGPGYPSAYDYWVQGTQVTVSS,low polyreactivity
13,QVQLVESGGGLVQAGGSLRLSCAASGFIFEGYAMGWYRQAPGKERELVAAINWSGTTTYYADSVKGRFTISRDNAKNTVYLQMNSLKPEDTAVYYCNARYYVLRGYDYWGQGTQVTVSS,low polyreactivity
14,QVQLVESGGGLVQAGGSLRLSCAASGRTFAYNAMGWYRQAPGKERELVAGITGGNSRTYYADSVKGRFTISRDNAKNTVYLQMNSLKPEDTAVYYCARRFYKGTSKTNLFDYWGQGTQVTVSS,high polyreactivity
15,QVQLVESGGGLVQAGGSLRLSCAASGRIFVINAMGWYRQAPGKERELVADITWSGGSTYADSVKGRFTISRDNAKNTVYLQMNSLKPEETAVYYCAKQRGGQPRSSTYYYWGQGTQVTVSS,high polyreactivity
16,QVQLVESGGGLDQAGGSLRLSCAASGRIGYYAMGWYRQAPGKETELVAAISYGGGSTYYADSVKGRFTISRDNAKNTVYLQLNSLKPEDTAVYYCAARWGKSWRGYGYWGQGTLVTVSS,high polyreactivity
